Assays:
[1] = size exclusion chromatography (Superdex S200 Increase) in 1 mM ATP buffer
[2] = size exclusion chromatography (Superdex S200 Increase) in 1 mM ADP buffer
[3] = size exclusion chromatography in 1 mM ADP (monomer state)
[4] = size exclusion chromatography in 1 mM ATP (dimer state)

Row | Protein | elution volume (SEC) in 1 mM ATP [1] | elution volume (SEC) in 1 mM ADP [2] | effective molecular weight (SEC) in 1 mM ADP [3] | effective molecular weight (SEC) in 1 mM ATP [4]
1 | TAP1 NBD of SEQ ID NO:87 with a peptide comprising a SpyTag3, TEV protease site and a His tag attached at the C-terminus (protein) MPPSGLLTPLHLEGLVQFQDVSFAYPNRPDVLVLQGLTFTLRPGEVTALVGPNGSGKSTVAALLQNLYQPTGGQLLLDGKPLPQYEHRYLHRQVAAVGQEPQVFGRSLQENIAYGLTQKPTMEEITAAAVKSGAHSFISGLPQGYDTEVDEAGSQLSGGQRQAVALARALIRKPSVLILDNATSALDAGNQLRVQRLLYESPERYSRSVLLITQHLSLVEQADHILFLEGGAIREGGTHQQLMEKKGSYWAMVQAPADAPE | The ATP-containing sample eluted at a volume of 15.75 ml | the ADP sample eluted at 16.81 ml | – | –
2 | human TAP1 NBD comprising N676G, S677N, Q680R, E682Q and Q683R substitutions, substitutions of cysteines with serines (SEQ ID NO:10) and a C-terminal His tag (protein) GLLTPLHLEGLVQFQDVSFAYPNRPDVLVLQGLTFTLRPGEVTALVGPNGSGKSTVAALLQNLYQPTGGQLLLDGKPLPQYEHRYLHRQVAAVGQEPQVFGRSLQENIAYGLTQKPTMEEITAAAVKSGAHSFISGLPQGYDTEVDEAGSQLSGGQRQAVALARALIRKPSVLILDNATSALDAGNQLRVQRLLYESPERYSRSVLLITQHLSLVEQADHILFLEGGAIREGGTHQQLMEKKGSYWAMVQAPADAPE | – | – | in the presence of ADP the protein chromatographs with an effective molecular weight of 37 kDa | in the presence of ATP the protein chromatographs with an effective molecular weight of 57 kDa

Reference: patent US20240254254
